First the molecules themselves.
B1: antibody 500 (antibody, V domains shown)
VH: QVQLVESGGGVVQPGRSLRLSCAASGFTFSSYAMHWVRQAPGKGLEWVAVISYDGSNKYYADSVKGRFTISRDNSKNTLYLQMNSLRAEDTAVYYCAKSRDGYKLFDIWGQGTMVTVSS
VL: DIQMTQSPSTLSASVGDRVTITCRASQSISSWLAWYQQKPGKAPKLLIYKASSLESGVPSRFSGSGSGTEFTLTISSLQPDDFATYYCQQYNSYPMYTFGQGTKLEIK
notes: also called mAb 500
B2: antibody 502 (antibody, V domains shown)
VH: QVQLVQSGAEVKKPGASVKVSCKASGYTFTSYYMHWVRQAPGQGLEWMGIINPSGGSTSYAQKFQGRVTMTRDTATSTVYMELSSLRSEDTAVYYCARGGGQISMIIVVMDDAFDIWGQGTMVTVSS
VL: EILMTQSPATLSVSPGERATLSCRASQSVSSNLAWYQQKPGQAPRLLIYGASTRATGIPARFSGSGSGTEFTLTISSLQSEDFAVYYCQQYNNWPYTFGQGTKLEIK
B3: antibody 501 (antibody, V domains shown)
VH: QVQLVQSGAEVKKPGASVKVSCKASGYTFTSYYVHWVRQAPGQSLEWMGVISPSTGSTTYAQNFQGRVTMTRDTSTTTVYMELSSLRSEDTAVYYCARDDYYDSTRYFDLWGRGTLVTVSS
VL: QSALTQPASVSGSPGQSISFSCTGTSSDIGAYNYVSWYQQHPGRAPKLMIYDVGNRPSGVSNRFSGSKSGNTASLTISGLQAEDEADYYCSSYTSSSTQVFGTGTKVTVL
B4: antibody 468 (antibody, V domains shown)
VH: QVQLVESGGGVVQPGRSLRLSCAASGFTFSIYAMHWVRQAPGKGLEWVAVISYDGSNKYYADSVKGRFTISRDNSKNTLYLQMNSLRAEDTAVYYCAGSLPAGSYYYYYGMDVWGQGTTVTVSS
VL: SYELTQPPSVSVSPGQTARITCSGDALPKQYAYWYQQKPGQAPVLVIYKDSERPSGIPERFSGSSSGTTVTLTISGVQAEDEADYYCQSADNSGTYVLFGGGTKLTVL
B5: antibody 465 (antibody, V domains shown)
VH: QITLKESGPTLVKPTQTLTLTCTFSGFSLSTSGVGVGWIRQPPGKALEWLALIYWDDDKHYSPSLKSRLTITKDTSKNQVVLTMTNMDPVDTATYYCAHMYYDILSGYYYGMDVWGQGTTVTVSS
VL: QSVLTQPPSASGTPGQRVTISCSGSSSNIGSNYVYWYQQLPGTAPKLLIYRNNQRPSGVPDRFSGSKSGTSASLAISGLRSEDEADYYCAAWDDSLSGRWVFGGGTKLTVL
B6: antibody 489 (antibody, V domains shown)
VH: QVQLVESGGGVVQPGRSLRLSCAASGFTFSSYAMHWVRQAPGKGLEWVAVISYDGSNKYYADSVKGRFTISRDNSKNTLYLQMNSLRAEDTAVYYCARAGSGNYYNWFDPWGQGTLVTVSS
VL: not shown
B7: antibody 481 (antibody, V domains shown)
VH: EVQLVESGGGLIQPGGSLRLSCAASGFTVSSNYMSWVRQAPGKGLEWVSVIYSGGSTFYADSVKGRFTISRDNSKNTLYLQMNSLRAEDTAVYYCAREVAGTYDYWGQGTLVTVSS
VL: DIQMTQSPSSVSASVGDRVTITCRASQGISSWLAWYQQKPGKAPKLLIYAASSLQSGVPSRFSGSGSGTDFTLTISSLQPEDFATYYCQQANSFPGGTFGPGTKVDIKR
B8: antibody 455 (antibody, V domains shown)
VH: QVQLVQSGAEVKKPGSSVKVSCKASGGTFSSYAISWVRQAPGQGLEWMGRIIPILGIANYAQKFQGRVTITADKSTSTAYMELSSLRSEDTAVYYCARDSIVVPAAIISGYYYYGMDVWGQGTTVTVSS
VL: QSVLTQPPSVSAAPGQKVTISCSGSSSNIGNNYVSWYQQLPGTAPKLLIYDNNKRPSGIPDRFSGSKSGTSATLGITGLQTGDEADYYCGTWDSSLSAGRVFGGGTKLTVL
B9: antibody 461 (antibody, V domains shown)
VH: EVQLVESGGGLVKPGGSLRLSCAASGFTFSSYSMNWVRQAPGKGLEWVSSISSSSSYIYYADSVKGRFTISRDNAKNSLYLQMNSLRAEDTAVYYCASNPAAGQEAYYYYGMDVWGQGTTVTVSS
VL: not shown
B10: antibody 448 (antibody, V domains shown)
VH: QVQLVQSGAEVKKPGASVKVSCKASGYTFTSYGISWVRQAPGQGLEWMGWISAYNGNTNYAQKLQGRVTMTTDTSTSTAYMELRSLRSDDTAVYYCAIELLEGFYYYYGMDVWGQGTTVTVSS
VL: SYELTQPPSVSVSPGQTARITCSGDALPKQYAYWYQQKPGQAPVLVIYKDSERPSGIPERFSGSSSGTTVTLTISGVQAEDEADYYCQSADSSGTYPYVVFGGGTKLTVL
B11: antibody 453 (antibody, V domains shown)
VH: QVQLVESGGGVVQPGRSLRLSCAASGFTFSSYAMYWVRQAPGKGLEWVAVISYDGSNKYYADSVKGRFTISRDNSKNTLYLQMNSLRAEDTAVYYCARDRPHYYGSGRKILNLYGMDVWGQGTTVTVSS
VL: DIQLTQSPSFLSASVGDRVTITCRASQGISSYLAWYQQKPGKAPKLLIYAASTLQSGVPSSFSGSGSGTEFTLTISSLQPEDFATYYCQQLNSYPPFTFGPGTKVDIK
B12: antibody 469 (antibody, V domains shown)
VH: QVQLVESGGGVVQPGRSLRLSCAASGFTFSSYGMHWVRQAPGKGLEWVAVIWYDGSNKYYADSVKGRFTISRDNSKNTLYLQMNSLRAEDTAVYYCARDLLSVGWSFDYWGQGTLVTVSS
VL: not shown
B13: antibody 458 (antibody, V domains shown)
VH: QVQLVESGGGVVQPGRSLRLSCAASEFTFATYAMHWVRQAPGKGLEWVALISQDGSNKHYADSVKGRFTISRDNSKNTLYLQMNSLRAEGTAIYYCARESLEAAGPPFDYWGQGTLVTVSS
VL: SYELTQPPSVSVSPGQTATIICSGDKLGEKYASWYQQKPGQSPALVIYQDRKRPSGIPERFSGSNSGNTATLTISGTQAMDEADYYCQAWDSSNSVVFGGGTKLTVP
B14: antibody 451 (antibody, V domains shown)
VH: EVQLVESGGGLVQPGGSLRLSCAASGFTFSTYWMSWVRQAPGKGLEWVANIKQDGSEKYYVDSVKGRFTISRDNAKNSLYLQMNSLRAEDTAVYYCARLGGSSWYFDYWGQGTLVTVSS
VL: not shown
B15: antibody 462 (antibody, V domains shown)
VH: QVQLVESGGGVVQPGRSLRLSCAASGFTFSSYGMHWVRQAPGKGLEWVAVIWYDGNNKYYADSVKGRFTISRDNSKNTLYLQMNSLRAEDTAVYYCAKDPTWFGELPSYYYYGMDVWGQGTTVTVSS
VL: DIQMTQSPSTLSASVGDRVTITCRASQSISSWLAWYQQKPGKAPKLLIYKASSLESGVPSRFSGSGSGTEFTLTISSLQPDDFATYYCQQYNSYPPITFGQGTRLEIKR
B16: antibody 449 (antibody, V domains shown)
VH: not shown
VL: B3 VL with S19T, F20I, I29V, A31G, R44K, D52E, G54S, Q99V, T103G, V107L

As a reminder, the Kd is the constant that tells how readily two partners part at equilibrium. Low values mean higher affinity, high ones lower affinity. As usually defined, the koff is the first-order rate constant of dissociation. A higher koff goes with fast dissociation. Broadly, the kon is a measure of how fast the partners come together. Read a high kon as faster complex formation.

Where a chain is given by its changes, count along the chain named.

The target of one assay is T1, SARS-CoV-2 spike protein (SARS-CoV-2, UniProt P0DTC2 14-1208).
T1 construct: also called SARS-CoV-2 S protein; antigen of interest
In words: HT-SPR, Carterra LSA; mAb coupled to chip, antigen injected; 1:1 fit.
The molecule B1 registered a Kd of 0.43 nM, an off-rate (koff) of 0.000114 s⁻¹ and an association rate constant (kon) of 266000 M⁻¹ s⁻¹.

With B2, the Kd is 2.49 nM, the off-rate (koff) turned out to be 0.000269 s⁻¹ and the kon stood at 108000 M⁻¹ s⁻¹.

Consider B3, for which binding was put at a Kd of 8.78 nM, the koff amounted to 0.000261 s⁻¹ and the kon is 29800 M⁻¹ s⁻¹.

A further assay addresses SARS-CoV-2 spike protein (SARS-CoV-2, UniProt P0DTC2 14-1208).
Assay: not given
In turn, B4 yielded a dissociation constant Kd of 0.463 nM, an off-rate constant (koff) of 3.67e-05 s⁻¹ and an on-rate (kon) of 79200 M⁻¹ s⁻¹.

Molecule B5 yielded a Kd of 6.97 nM, a koff of 6.06e-05 s⁻¹ and a kon of 8700 M⁻¹ s⁻¹.

Turning to B6, the dissociation constant Kd was determined as 0.317 nM, the koff was 4.85e-05 s⁻¹ and the kon amounted to 153000 M⁻¹ s⁻¹.

Regarding B7, the dissociation constant (Kd) worked out at 0.273 nM, the dissociation rate constant (koff) stood at 2.96e-05 s⁻¹ and the kon is 109000 M⁻¹ s⁻¹.

B8 displayed an equilibrium dissociation constant (Kd) of 0.866 nM, an off-rate (koff) of 9.23e-05 s⁻¹ and a kon of 107000 M⁻¹ s⁻¹.

B9 had a dissociation constant (Kd) of 3.92 nM, a dissociation rate constant (koff) of 0.000377 s⁻¹ and a kon of 96300 M⁻¹ s⁻¹.

Molecule B10 showed a Kd of 37.5 nM, a koff of 0.000692 s⁻¹ and a kon of 18500 M⁻¹ s⁻¹.

Molecule B11 had a Kd of 1.61 nM, a koff of 0.000154 s⁻¹ and an on-rate (kon) of 95600 M⁻¹ s⁻¹.

Molecule B12 showed a dissociation constant Kd of 0.133 nM, a koff of 8.39e-05 s⁻¹ and a kon of 630000 M⁻¹ s⁻¹.

In the case of B13, the dissociation constant (Kd) was found to be 0.334 nM, the koff came out at 8.87e-05 s⁻¹ and the kon was 266000 M⁻¹ s⁻¹.

As for B14, the dissociation constant (Kd) is 0.429 nM, the dissociation rate constant (koff) came to 6.02e-05 s⁻¹ and the on-rate (kon) amounted to 140000 M⁻¹ s⁻¹.

Turning to B15, binding was characterised by a dissociation constant (Kd) of 9.31 nM, the koff worked out at 0.00117 s⁻¹ and the on-rate constant (kon) is 125000 M⁻¹ s⁻¹.

Take B16: the Kd was 9.17 nM, the off-rate constant (koff) turned out to be 0.000526 s⁻¹ and the kon is 57400 M⁻¹ s⁻¹.

The values above are taken from patent US20210292393A1 (published 2021).
